Data on one molecule can be found in patent US20080274112A1, “Nogo Receptor Antagonists” (priority 2003, published 2008).

One assay addresses T1, mouse NgR3 (Mus musculus, UniProt Q8K0S5).
T1 sequence (Q8K0S5 25-424): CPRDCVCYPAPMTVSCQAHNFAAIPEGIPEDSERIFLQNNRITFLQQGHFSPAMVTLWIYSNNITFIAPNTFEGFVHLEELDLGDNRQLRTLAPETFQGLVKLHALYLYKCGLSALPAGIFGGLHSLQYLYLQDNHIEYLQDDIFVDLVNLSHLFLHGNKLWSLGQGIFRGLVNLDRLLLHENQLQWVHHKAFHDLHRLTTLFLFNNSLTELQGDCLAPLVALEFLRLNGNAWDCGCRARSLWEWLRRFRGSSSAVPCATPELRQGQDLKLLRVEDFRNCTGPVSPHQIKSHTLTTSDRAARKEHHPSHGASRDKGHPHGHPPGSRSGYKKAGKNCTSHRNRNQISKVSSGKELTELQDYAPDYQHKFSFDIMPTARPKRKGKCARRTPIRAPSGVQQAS
Put plainly: Antibody binding to mouse Nogo receptor-3. The following applies: species not stated.

The target in assay [1] is polypeptide p-617 (SEQ ID NO: 1) (Rattus norvegicus, UniProt Q99M75). Put plainly: Specificity ELISA on polypeptide p-617. Format: binding. An excerpt:
To determine the specificity of the monoclonal and Fab-phage antibodies produced in Examples 1 and 2, we performed an ELISA using a panel of Nogo receptor-1 polypeptides. The panel consisted of sNogoR310-Fc (a fusion protein comprising amino acids 26-310 of rat Nogo receptor-1 and a rat Fc fragment), sNogoR344-Fc (see supra), polypeptide p-617 (SEQ ID NO: 1), polypeptide p-618 (a 19-amino acid polypeptide from the LRR7 region of rat Nogo receptor-1; FIG. 2; SEQ ID NO: 11) and polypeptides p-4 and p-5 (polypeptides from the LRR5 and LRRCT regions of Nogo receptor-1, respectively). Ovalbumin and BSA were used as controls.
On the technique in general: ELISA stands for enzyme-linked immunosorbent assay.

Another assay concerns the target T2, OM-gp + sNogoR344-Fc (Rattus norvegicus, UniProt Q99M75, A303T/C287S/C43R/E284G/T53A).
T2 construct: amino acid residues 26-344 of rat Nogo receptor-1; made in house
T2 sequence (Q99M75 26-344 C43R/T53A/E284G/C287S/A303T): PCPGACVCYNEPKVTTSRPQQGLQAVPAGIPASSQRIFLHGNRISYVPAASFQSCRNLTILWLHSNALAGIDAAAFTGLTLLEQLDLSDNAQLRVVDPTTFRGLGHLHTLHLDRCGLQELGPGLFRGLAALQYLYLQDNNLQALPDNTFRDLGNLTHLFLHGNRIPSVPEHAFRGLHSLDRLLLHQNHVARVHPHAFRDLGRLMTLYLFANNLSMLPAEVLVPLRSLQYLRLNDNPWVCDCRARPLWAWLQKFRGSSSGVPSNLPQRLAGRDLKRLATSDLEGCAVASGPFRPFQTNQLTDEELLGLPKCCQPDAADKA
Put plainly: mAb/Fab inhibition of OM-gp binding to sNogoR344-Fc (ELISA). How it is done: (§1) 0.5 μg of a soluble Nogo receptor-1 fusion protein comprising amino acid residues 26-344 of rat Nogo receptor-1 and the hinge and Fc region of the rat IgG1 molecule (sNogoR344-Fc) produced as described below was immobilized on 250 μg of protein-A- or wheatgerm agglutinin-conjugated SPA beads (Amersham Pharmacia Biotech) for 2 hours at 25° C. SPA beads coupled with Fc-sNogoR-1, anti-Nogo receptor-1 mAb and 1 μl ^125I-Nogo66 (Amersham, 2000 Ci/mmol, 1 nM) in 50 μl of the HEPES-buffered incubation medium (10 mM HEPES, pH 7.4, 0.1% bovine serum albumin, 0.1% ovalbumin, 2 mM MgCl2, 2 mM CaCl2 and protease inhibitors) was added to each sample well. After 16 hours, radioactivity was measured in quadruplicate samples using a TopCount® (Packard). IC50 values were calculated from a curve-fit analysis (FIG. 3) (PRISM, GraphPad Software, NJ). In some experiments, we also used AP-ligand conjugates (e.g. AP-Nogo66) and detected binding by monitoring alkaline phosphatase activity. We also assayed the ability of the mAbs to block binding of the ligands MAG-Fc and AP-OM-gp to Nogo receptor-1.
(§2) The calculated IC50 for Nogo66 for 7E11 and 1H2 were 400 nM and 60 nM, respectively. The data from ELISAs monitoring mAb-mediated inhibition of binding of the three ligands to Nogo receptor-1 are summarized in Table 6.
(§3) We also performed ELISA binding assays using the Fab-phage 14D5.

The target of another assay is T3, Nogo66 + sNogoR344-Fc (Rattus norvegicus, UniProt Q99M75, A303T/C287S/C43R/E284G/T53A).
T3 construct: amino acid residues 26-344 of rat Nogo receptor-1; made in house
T3 sequence (Q99M75 26-344 C43R/T53A/E284G/C287S/A303T): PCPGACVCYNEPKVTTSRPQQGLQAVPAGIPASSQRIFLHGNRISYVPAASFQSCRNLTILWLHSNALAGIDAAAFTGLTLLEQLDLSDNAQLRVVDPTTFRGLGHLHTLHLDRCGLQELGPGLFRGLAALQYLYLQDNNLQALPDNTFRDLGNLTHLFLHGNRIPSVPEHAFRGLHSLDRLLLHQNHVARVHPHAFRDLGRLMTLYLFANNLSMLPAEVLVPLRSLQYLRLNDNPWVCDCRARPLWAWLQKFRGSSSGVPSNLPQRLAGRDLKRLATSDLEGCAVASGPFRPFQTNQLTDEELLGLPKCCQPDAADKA
Put plainly: mAb/Fab inhibition of Nogo66 binding to sNogoR344-Fc (ELISA). How it is done: as §1, §2, §3

The target of another assay is T4, human NgR1 (Homo sapiens, UniProt Q9BZR6).
T4 sequence (Q9BZR6 27-447): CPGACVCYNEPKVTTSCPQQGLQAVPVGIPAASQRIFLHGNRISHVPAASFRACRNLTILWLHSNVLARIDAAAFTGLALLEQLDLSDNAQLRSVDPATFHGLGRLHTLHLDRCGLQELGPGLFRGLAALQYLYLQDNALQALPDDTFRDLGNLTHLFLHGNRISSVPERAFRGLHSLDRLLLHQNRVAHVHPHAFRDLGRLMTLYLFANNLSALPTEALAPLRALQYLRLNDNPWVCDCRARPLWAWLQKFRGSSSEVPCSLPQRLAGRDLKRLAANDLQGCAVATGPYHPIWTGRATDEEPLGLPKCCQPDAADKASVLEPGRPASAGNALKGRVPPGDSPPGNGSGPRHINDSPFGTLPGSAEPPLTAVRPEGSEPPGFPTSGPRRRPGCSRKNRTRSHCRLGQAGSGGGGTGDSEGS
Put plainly: Antibody binding to human Nogo receptor-1.

Entries after “also recorded” stand apart in the source; their conditions may differ.

B1: 7E11: murine monoclonal anti-Nogo receptor-1 antibody, IgG1 kappa, ATCC PTA-4587; immunogen rat Nogo receptor-1 residues 110-125 (antibody, V domains shown)
VH: VQLQESGAELVMPGASVKMSCKASGYTFTDYWMHWVKQRPGQGLEWIGAIDPSDSYSSYNQNFKGKATLTVDGSSSTAYMQLSSLTSEDSAVYYCARRITEAGAWFAYWGQGTTVT
VL: DVVMTQTPLSLPVSLGDQASISCRSSQSLVHSNGNTYLHWYLQKPGQSPKLLIYKVSNRFSGVPDRFSGSGSGTDFTLKISRVDAEDLGVYFCSQSTHVPFTFGGGTKLEIKRADAAPTVSISHH
As usually defined, the EC50 is the concentration that produces a half-maximal response. Take B1: the “binding to NgR3” value with mouse NgR3 is listed as “does not bind well”. Moreover, the “binding to polypeptide p-617” value in assay [1] is on record as “specifically bound”. Also, the “inhibition of binding of OM-gp to sNogoR344-Fc” value with OM-gp + sNogoR344-Fc is recorded as “inhibited binding”. Moreover, the EC50 with OM-gp + sNogoR344-Fc (curve-fit analysis) came out at 0.15 µM; in the assay with Nogo66 + sNogoR344-Fc (curve-fit analysis) it was 1.7 µM. Moreover, in the assay with Nogo66 + sNogoR344-Fc, the “inhibition of binding of Nogo66 to sNogoR344-Fc” value is recorded as “inhibited binding”. Moreover, in the assay with human NgR1, the “binding to human NgR1” value is on record as “bound; also recorded: binds well”.
